Assay [1] concerns the target T1, hFCRL1/FcRH1-His (manufactured by R&D Systems) (human, UniProt Q96LA6 17-307).
T1 construct: Bought His-tagged recombinant human FCRL1; The protein in the assay is soluble and is probably only the extracellular part; not shown: His tag
T1 sequence: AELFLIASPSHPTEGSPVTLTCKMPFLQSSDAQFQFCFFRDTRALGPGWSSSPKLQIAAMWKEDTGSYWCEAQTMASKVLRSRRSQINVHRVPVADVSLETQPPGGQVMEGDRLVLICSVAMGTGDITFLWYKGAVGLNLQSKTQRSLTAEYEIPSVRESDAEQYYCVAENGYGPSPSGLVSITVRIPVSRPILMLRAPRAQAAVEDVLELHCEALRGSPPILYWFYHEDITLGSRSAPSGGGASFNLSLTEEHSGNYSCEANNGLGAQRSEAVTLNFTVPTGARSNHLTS
The experiment in a line: SPR (Biacore 8K+), antibody captured by anti-human IgG, hFCRL1/FcRH1-His as analyte; Steady state affinity model. The procedure: (§1) For the purpose of comparing the binding activity of the DK681 chimeric antibody (chDK681) and the DK1142 chimeric antibody (chDK1142) obtained by connecting […] of the DK681 and DK1142 mouse antibodies obtained in Example 4 to a human IgG1 (S239C) constant region with the binding activity of the anti-FCRL1 humanized antibody obtained in Example 10 to human FCRL1, the binding activity to hFCRL1/FcRH1-His (manufactured by R&D Systems) was measured by a surface plasmon resonance method (SPR method) using Biacore8K+ (manufactured by Cytiva).
(§2) The binding activity of the anti-FCRL1 antibody was measured as follows. An anti-human IgG antibody was immobilized on a CM5 sensor chip (manufactured by Cytiva) in accordance with the attached protocol using a Human Antibody Capture Kit (manufactured by Cytiva). An anti-FCRL1 antibody prepared at 5 μg/mL was added to a flow cell on which the Anti-human IgG antibody was immobilized at a flow rate of 10 μL/min for 30 seconds.
(§3) Next, hFCRL1/FcRH1-His, which is prepared stepwise to 5 concentrations by 3-fold dilution from 10000 ng/ml, was monitored at a flow rate of 30 μL/min for a binding reaction for 180 seconds and a dissociation reaction for 400 seconds. For the obtained sensorgram, a kinetic constant of each antibody was calculated by fitting by a Steady state affinity model or a 1:1 Binding model using Bia Evaluation Software (manufactured by Cytiva). The calculated binding rate constant (ka), dissociation rate constant (kd) and dissociation constant [KD] of each antibody are shown in Table 5. The chDK681 is referred to as DK681 F01, and the chDK1142 is referred to as DK1142 F02.

Assay [2] addresses T1, hFCRL1/FcRH1-His (manufactured by R&D …). In words: SPR (Biacore 8K+), antibody captured by anti-human IgG, hFCRL1/FcRH1-His as analyte; Steady state affinity model; kinetic rate constant of the same sensorgram. The procedure:
as §1
(§4) The binding activity of the anti-FCRL1 antibody was measured as follows. An anti-human IgG antibody was immobilized on a CM5 sensor chip (manufactured by Cytiva) in accordance with the attached protocol using a Human Antibody Capture Kit (manufactured by Cytiva). […]
(§5) Next, hFCRL1/FcRH1-His, which is prepared stepwise to 5 concentrations by 3-fold dilution from 10000 ng/ml, was monitored at a flow rate of 30 μL/min for a binding reaction for 180 seconds and a dissociation reaction for 400 seconds. For the obtained sensorgram, a kinetic constant of each antibody was calculated by fitting by a Steady state affinity model or a 1:1 Binding model using Bia Evaluation Software (manufactured by Cytiva). The calculated binding rate constant (ka), dissociation rate constant (kd) and dissociation constant [KD] of each antibody are shown in Table 5. […]
Background: In SPR one partner is held on a chip, and binding of the other changes the refractive index at the surface.

Assay [3] shares this target. In words: SPR (Biacore 8K+), antibody captured by anti-human IgG, hFCRL1/FcRH1-His as analyte; Steady state affinity model; KD from Steady state affinity model, not from kd/ka. The procedure: as §1, §4, §5
The target in assay [4] is T2, human FCRL1 (NCBI accession number: NP_443170.1), transiently expressed on 293T cells (human, UniProt Q96LA6 17-429).
T2 construct: also called Fc receptor-like protein 1; CD307a
T2 sequence: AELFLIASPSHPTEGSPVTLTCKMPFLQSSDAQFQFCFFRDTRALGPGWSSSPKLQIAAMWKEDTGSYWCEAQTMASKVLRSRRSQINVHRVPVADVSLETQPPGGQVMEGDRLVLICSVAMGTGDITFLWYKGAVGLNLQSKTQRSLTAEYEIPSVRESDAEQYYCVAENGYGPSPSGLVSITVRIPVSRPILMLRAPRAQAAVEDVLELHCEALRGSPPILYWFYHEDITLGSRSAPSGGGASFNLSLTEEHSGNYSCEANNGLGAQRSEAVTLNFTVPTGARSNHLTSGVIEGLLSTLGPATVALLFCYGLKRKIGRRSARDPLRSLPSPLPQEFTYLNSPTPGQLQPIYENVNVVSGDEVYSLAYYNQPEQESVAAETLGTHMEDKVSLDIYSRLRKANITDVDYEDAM
The experiment in a line: flow cytometry on 293T cells transiently expressing human FCRL1; apparent KD from EC50 of a 4-parameter fit. The procedure: (§6) An antigen-specific reactivity of the novel anti-human FCRL1 mouse antibody obtained in Example 4 was evaluated by Flow Cytometry (FCM). FCRL1 antigen-expressing cells were prepared by transiently expressing the recombinant FCRL1 antigen on 293T cells. A codon-optimized cDNA was synthesized based on the amino acid sequence of human FCRL1 (NCBI accession number: NP_443170.1) or cynomolgus monkey FCRL1 (XP_015310712), and a fragment in which the sequence of an internal ribosome entry site (IRES) derived from the encephalomyocarditis virus (EMCV) and the sequence of TagBFP were arranged in tandem was cloned into pcDNA 3.1hygro to construct an expression plasmid vector for human FCRL1 or cynomolgus monkey FCRL1. The purified expression vector was transfected into 293T cells, cells were collected 2 days after transfection, and binding with each antibody was confirmed by FCM.
(§7) As the secondary antibody, when the sample is a mouse antibody, R-Phycoerythrin (PE) F(ab′)₂ Fragment Goat Anti-Mouse IgG (H+L) (Jackson ImmunoResearch) was used, and when the sample is a human antibody or a human chimeric antibody, R-Phycoerythrin (PE) F(ab′)₂ Fragment Goat Anti-Human IgG, Fcγ Fragment Specific (Jackson ImmunoResearch) was used. A solution of each secondary antibody was prepared by diluting the stock solution 200 times with an FCM buffer. After washing once, cells in each well were suspended with 100 μL of FCM buffer, and binding to each antibody was confirmed by flow cytometry (FCM).
(§8) Cells that transiently expressed human FCRL1 or cynomolgus monkey FCRL1 were reacted with a 3-fold dilution series of each antibody starting from 100 nM (15 μg/ml) at 12 points. Data obtained by the FCM was analyzed, and a binding amount of each antibody bound to the cell was calculated as a fluorescence amount MFI derived from the PE-labeled secondary antibody. An antibody concentration and the measured MFI were plotted with respect to a logarithm of the antibody concentration, a saturated binding curve of each antibody was obtained, and regression was performed by a 4-parameter logistic model.
In general terms: In flow cytometry, cells or beads pass a laser one at a time.

The target of assay [5] is T3, cynomolgus monkey FCRL1 (XP_015310712), transiently expressed on 293T cells (cynomolgus monkey).
T3 chain: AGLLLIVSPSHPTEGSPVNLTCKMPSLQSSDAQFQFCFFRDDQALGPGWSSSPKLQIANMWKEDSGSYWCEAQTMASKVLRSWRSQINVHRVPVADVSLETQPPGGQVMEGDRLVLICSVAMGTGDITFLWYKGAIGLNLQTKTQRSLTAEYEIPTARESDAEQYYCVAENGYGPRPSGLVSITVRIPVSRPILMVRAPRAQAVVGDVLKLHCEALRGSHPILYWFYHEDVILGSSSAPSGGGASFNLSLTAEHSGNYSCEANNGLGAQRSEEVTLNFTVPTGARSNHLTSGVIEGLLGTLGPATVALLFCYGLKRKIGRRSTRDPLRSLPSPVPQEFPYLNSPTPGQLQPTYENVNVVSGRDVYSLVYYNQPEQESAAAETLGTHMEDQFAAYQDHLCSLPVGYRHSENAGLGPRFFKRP
In words: flow cytometry on 293T cells transiently expressing cynomolgus monkey FCRL1; apparent KD from EC50 of a 4-parameter fit. The procedure: as §6, §7, §8

Assay [6] addresses T1, hFCRL1/FcRH1-His (manufactured by R&D …). In words: SPR (Biacore 8K+), antibody captured by anti-human IgG, hFCRL1/FcRH1-His as analyte; 1:1 Binding model. Here is the method:
as §1, §2, §3

Where a chain is given by its changes, count along the chain named. In names and notes the source's numbering stands.

B1: DK681 humanized antibody DK681 F12, human IgG1 (S239C) (antibody)
heavy: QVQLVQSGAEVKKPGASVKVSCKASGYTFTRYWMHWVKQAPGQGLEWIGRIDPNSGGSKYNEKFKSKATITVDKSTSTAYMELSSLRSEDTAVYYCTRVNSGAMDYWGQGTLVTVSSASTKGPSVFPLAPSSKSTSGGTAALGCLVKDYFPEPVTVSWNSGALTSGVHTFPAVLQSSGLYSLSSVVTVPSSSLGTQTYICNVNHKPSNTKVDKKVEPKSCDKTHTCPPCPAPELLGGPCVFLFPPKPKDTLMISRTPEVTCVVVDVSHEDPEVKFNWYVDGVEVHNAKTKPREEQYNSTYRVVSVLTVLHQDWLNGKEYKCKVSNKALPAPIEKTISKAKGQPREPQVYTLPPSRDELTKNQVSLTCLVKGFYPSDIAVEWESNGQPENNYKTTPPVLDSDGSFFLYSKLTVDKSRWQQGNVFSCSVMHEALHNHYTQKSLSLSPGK
light: DIVMTQSPDSLAVSLGERATMNCKSSQSLLYSSNQKNYLAWYQQKPGQSPKLLIYWASTRESGVPDRFSGSGSGTDFTLTISSLQAEDVAIYYCQQYSNYPTFGQGTKVEIK
In assay [1], B1 came in with a Kd of 9.15 nM, a dissociation rate constant (koff) of 0.00259 s⁻¹ and a kon of 385000 M⁻¹ s⁻¹.

B2: DK681 humanized antibody DK681 F13, human IgG1 (S239C) (antibody)
heavy: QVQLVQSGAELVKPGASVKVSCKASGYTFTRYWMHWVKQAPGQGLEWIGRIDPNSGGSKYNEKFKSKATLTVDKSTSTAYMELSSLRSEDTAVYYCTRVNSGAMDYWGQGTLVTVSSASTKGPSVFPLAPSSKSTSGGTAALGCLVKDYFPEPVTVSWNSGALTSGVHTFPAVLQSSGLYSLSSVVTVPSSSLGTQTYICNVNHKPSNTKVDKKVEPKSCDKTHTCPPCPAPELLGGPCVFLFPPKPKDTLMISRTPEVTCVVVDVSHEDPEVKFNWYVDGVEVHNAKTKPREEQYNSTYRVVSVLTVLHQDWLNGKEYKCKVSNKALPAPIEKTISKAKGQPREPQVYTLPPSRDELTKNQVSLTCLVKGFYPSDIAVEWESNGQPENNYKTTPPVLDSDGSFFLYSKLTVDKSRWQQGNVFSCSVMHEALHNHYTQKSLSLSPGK
light: B1 light
For the molecule B2, in assay [1], the Kd amounted to 9.84 nM, the koff amounted to 0.00297 s⁻¹ and the kon was found to be 387000 M⁻¹ s⁻¹.

B3: DK681 chimeric antibody (chDK681), human IgG1 (S239C) (antibody)
heavy: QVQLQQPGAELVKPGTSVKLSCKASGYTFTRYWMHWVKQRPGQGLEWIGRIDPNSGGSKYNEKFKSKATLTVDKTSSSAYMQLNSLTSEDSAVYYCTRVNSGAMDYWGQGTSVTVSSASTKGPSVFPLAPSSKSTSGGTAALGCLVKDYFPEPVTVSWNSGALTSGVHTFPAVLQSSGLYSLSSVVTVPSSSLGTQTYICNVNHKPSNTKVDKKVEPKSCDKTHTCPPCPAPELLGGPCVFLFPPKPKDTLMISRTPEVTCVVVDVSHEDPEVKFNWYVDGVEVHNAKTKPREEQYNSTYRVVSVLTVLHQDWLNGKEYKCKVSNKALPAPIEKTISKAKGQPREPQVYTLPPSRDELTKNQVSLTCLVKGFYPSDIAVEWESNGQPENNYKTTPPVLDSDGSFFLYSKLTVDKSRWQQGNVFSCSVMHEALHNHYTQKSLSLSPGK
light: DIVMSQSPSSLAVSVGEKVTMSCKSSQSLLYSSNQKNYLAWYQQKPGQSPKLLIYWASTRESGVPDRFTGSGSGTDFTLTISSVKAEDLAIYYCQQYSNYPTFGSGTKLEIK
notes: also called DK681 F01; not shown: human kappa light chain constant region (pFUSE2-CLIg-hk vector)
In assay [2], B3 showed a koff of 0.00105 s⁻¹ and a kon of 447000 M⁻¹ s⁻¹. Also, in assay [3], the Kd was found to be 6.65 nM.

B4: anti-human FCRL1 mouse monoclonal antibody DK681 (antibody, V domains shown)
VH: QVQLQQPGAELVKPGTSVKLSCKASGYTFTRYWMHWVKQRPGQGLEWIGRIDPNSGGSKYNEKFKSKATLTVDKTSSSAYMQLNSLTSEDSAVYYCTRVNSGAMDYWGQGTSVTVSS
VL: B3 light
In the case of B4, the Kd amounted to 1 nM in assay [4] and 0.8 nM in assay [5].

B5: anti-human FCRL1 mouse monoclonal antibody DK1141 (antibody, V domains shown)
VH: EVRLVESGGRLVQPKGSLRLSCAVSGFTFNTYAMYWIRQAPGKGLEWVARIRSKTNNFATYYADSVKDRFTISRDDSQSMLYLQMNNLKTEDTAMYYCVRDNSGSFDYWGQGTTLTVSS
VL: DIVMAQSPSSLAVSVGEKVTMSCKSSQSLLHSSNQKNYLAWYQQKPGQSPNLLIYWASSRESGVPDRFTGSGSGTDFTLTISSVQAEDLATYYCQQYYSYPTFGAGTKLDLK
For the molecule B5, the Kd was 1.6 nM in assay [4] and 0.8 nM in assay [5].

B6: DK1142 humanized antibody DK1142 F22, human IgG1 (S239C) (antibody)
heavy: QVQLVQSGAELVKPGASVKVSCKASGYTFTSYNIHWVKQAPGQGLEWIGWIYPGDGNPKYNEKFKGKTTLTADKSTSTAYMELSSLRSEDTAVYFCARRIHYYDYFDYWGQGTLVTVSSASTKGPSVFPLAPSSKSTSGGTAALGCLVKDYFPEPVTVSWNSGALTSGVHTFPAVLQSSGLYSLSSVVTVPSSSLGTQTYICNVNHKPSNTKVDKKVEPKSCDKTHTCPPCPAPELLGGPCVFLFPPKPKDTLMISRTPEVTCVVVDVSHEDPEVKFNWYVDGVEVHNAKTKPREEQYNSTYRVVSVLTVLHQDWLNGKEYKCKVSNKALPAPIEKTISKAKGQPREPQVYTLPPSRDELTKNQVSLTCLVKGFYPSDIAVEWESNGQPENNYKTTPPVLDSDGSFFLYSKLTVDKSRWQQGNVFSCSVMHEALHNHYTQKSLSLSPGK
light: DIVMTQSPLSLPVTLGEPASISCRSSQSIVHSNGNTYLEWYLQKPGQSPQLLIYKVSNRFSGVPDRFSGSGSGTDFTLKISRVEAEDVGVYYCFQGSHVPWTFGQGTKVEIK
Consider B6, for which, in assay [6], the Kd was 11.1 nM, the koff turned out to be 0.0428 s⁻¹ and the kon came to 3.85e+06 M⁻¹ s⁻¹.

B7: DK1142 humanized antibody DK1142 F21, human IgG1 (S239C) (antibody)
heavy: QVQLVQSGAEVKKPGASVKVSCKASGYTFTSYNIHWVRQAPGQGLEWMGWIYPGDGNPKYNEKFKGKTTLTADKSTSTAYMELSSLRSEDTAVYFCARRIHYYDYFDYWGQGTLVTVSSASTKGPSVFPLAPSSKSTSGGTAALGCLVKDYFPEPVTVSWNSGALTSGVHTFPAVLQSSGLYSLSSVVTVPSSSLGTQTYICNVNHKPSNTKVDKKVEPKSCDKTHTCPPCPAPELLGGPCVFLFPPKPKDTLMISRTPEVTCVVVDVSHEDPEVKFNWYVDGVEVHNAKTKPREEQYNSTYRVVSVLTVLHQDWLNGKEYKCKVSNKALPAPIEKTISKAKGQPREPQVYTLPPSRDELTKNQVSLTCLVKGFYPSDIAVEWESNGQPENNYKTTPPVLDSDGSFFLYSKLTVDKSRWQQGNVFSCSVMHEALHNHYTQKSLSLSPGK
light: B6 light
In assay [6], B7 registered a Kd of 12.8 nM, a koff of 0.0686 s⁻¹ and a kon of 5.36e+06 M⁻¹ s⁻¹.

B8: DK1142 humanized antibody DK1142 F24, human IgG1 (S239C) (antibody)
heavy: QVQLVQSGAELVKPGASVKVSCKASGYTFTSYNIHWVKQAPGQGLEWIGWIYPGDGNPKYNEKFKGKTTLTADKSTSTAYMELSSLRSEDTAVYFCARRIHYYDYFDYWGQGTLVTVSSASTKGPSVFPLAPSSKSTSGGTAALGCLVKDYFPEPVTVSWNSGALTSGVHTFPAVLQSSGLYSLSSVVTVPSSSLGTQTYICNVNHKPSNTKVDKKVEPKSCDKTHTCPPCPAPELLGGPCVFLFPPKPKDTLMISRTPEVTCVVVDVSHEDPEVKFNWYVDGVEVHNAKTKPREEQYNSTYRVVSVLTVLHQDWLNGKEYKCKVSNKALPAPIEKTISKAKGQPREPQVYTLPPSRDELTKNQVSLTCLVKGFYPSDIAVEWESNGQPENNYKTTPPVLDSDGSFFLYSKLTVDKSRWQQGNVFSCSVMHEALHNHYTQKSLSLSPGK
light: B6 light with I2V, Q50K, V56I
As to B8, in assay [6], the Kd was determined as 12.2 nM, the koff worked out at 0.0274 s⁻¹ and the kon stood at 2.24e+06 M⁻¹ s⁻¹.

B9: anti-human FCRL1 mouse monoclonal antibody DK1164 (antibody, V domains shown)
VH: QVQLQQSGTELVRPGTSVKVSCKASGYAFTNYLIEWVKQRPGQGLEWIGVINPGSGGTDYNKKFKGKAMLTADKSSNTAYMQLSSLTSDDSAVYFCARSNSYAMDYWGQGTSVTVSS
VL: DIVMSQSPSSLAVSVGEKVTVSCKSSQSLLYSGNQKNNLAWYKQKPGQSPKLLIYWASTRESGVPDRFTGSGSGTDFTLTMSSVKAEDLAVYYCQQYYSYPWTFGGGTKLEIK
For B9, the figures for the Kd in assay [4] and in assay [5] were 2.3 nM and 1.4 nM, respectively.

B10: anti-human FCRL1 mouse monoclonal antibody DK1142 (antibody, V domains shown)
VH: QVQLQQSGPELVKPGASVRISCKASGYTFTSYNIHWVKQRPGQGLEWIGWIYPGDGNPKYNEKFKGKTTLTADKSSSTAYMQLSSLTSEDSAVYFCARRIHYYDYFDYWGQGTTLTVSS
VL: DVLMTQTPLSLPVSLGDQASISCRSSQSIVHSNGNTYLEWYLQKPGQSPKLLIYKVSNRFSGVPDRFSGSGSGTDFTLKISRVEADDLGVYYCFQGSHVPWTFGGGTKLEIK
Turning to B10, the Kd in assay [4] is 1.4 nM; in assay [5], 1.1 nM.

B11: DK1142 chimeric antibody (chDK1142), human IgG1 (S239C) (antibody)
heavy: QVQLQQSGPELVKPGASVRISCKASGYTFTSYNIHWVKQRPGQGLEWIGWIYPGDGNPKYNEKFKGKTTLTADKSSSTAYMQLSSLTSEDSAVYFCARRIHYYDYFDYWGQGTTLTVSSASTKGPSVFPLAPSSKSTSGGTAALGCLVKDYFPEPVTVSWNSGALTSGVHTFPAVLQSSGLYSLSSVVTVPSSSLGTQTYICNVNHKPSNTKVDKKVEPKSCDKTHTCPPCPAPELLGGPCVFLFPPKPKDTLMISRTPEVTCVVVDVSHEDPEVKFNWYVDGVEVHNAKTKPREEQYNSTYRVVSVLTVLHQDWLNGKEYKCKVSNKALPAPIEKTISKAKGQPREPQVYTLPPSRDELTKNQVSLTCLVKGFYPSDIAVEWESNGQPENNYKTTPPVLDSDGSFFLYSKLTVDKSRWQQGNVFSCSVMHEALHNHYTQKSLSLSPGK
light: B10 VL
notes: also called DK1142 F02; not shown: human kappa light chain constant region (pFUSE2-CLIg-hk vector)
As to B11, in assay [6], the Kd was found to be 11.4 nM, the koff was 0.0518 s⁻¹ and the kon worked out at 4.55e+06 M⁻¹ s⁻¹.

B12: anti-human FCRL1 mouse monoclonal antibody DK1166 (antibody, V domains shown)
VH: B10 VH with P58T, Y103F, V117L
VL: B10 VL with A19V, S26G, S28T, K79R, D86E
For the molecule B12, the Kd in assay [4] came to 1.5 nM; in assay [5] it was 1 nM.

A word on the koff: it is a measure of how fast the partners let go of each other. Usually kon stands for the rate constant with which the complex forms.

The values are drawn from US20250382371A1 (NATIONAL INSTITUTES OF BIOMEDICAL INNOVATION HEALTH AND …, published 2025).
